Measurements from patent KR20190105077A.

What was measured:
Assay in all cases: cell-based or functional assay
[1] = target: 인간 PD-1 (human PD-1) (human) (UniProt Q15116)
[2] = target: 인간 TGF-β1 (human TGF-β1) (human) (UniProt P01137)
[3] = target: 배양된 세포에 의해 내인적으로 생성되는 TGF-β

Sequence of UniProt Q15116 (Q15116 25-288): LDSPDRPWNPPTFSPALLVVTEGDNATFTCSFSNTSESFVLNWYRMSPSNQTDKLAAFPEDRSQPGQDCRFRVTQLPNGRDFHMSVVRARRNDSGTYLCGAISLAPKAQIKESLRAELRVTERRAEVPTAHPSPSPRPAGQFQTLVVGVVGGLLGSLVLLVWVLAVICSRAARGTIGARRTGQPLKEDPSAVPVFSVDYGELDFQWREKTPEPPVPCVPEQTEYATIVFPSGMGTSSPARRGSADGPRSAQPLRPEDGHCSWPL
Sequence of UniProt P01137 (P01137 279-390 limits assumed): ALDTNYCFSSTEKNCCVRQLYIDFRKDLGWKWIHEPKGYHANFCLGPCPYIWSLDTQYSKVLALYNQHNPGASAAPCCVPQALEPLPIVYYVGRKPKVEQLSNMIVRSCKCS

Substance	NFAT-루시퍼라제 상대 발광 단위, 인간 PD-1 발현 Jurkat T 세포와 인간 PD-L1 발현 CHO-K1 세포의 24시간 공동-배양 [1]	루시퍼라제 활성의 배율 변화, 항-hPD-1 항체 대 이소형 대조군 (234963 RLU) [1]	루시퍼라제 활성의 배율 변화, 항-hPD-1 항체 대 항체 부재 (206043 RLU) [1]	NFAT-루시퍼라제 상대 발광 단위, 18 ng/㎖ TGF-β1로 12일 사전-처리된 Jurkat T 세포, 항-PD-1 Ab 존재 하 CHO-K1 공동-배양 (Ab 부재: 638866) [2]	iTreg(CD25+FOXP3+) 백분율, 자극된 인간 CD4+ T 세포 + 2 ng/㎖ 인간 TGF-β1, 항체 200 ㎍/㎖ 및 6.25 ㎍/㎖ (항체 없이 55%) [2]	iTreg(FOXP3+CD25+) 백분율, 자극된 인간 CD4+ T 세포, 항체 50 ㎍/㎖, 외인성 TGF-β 없음 (항체 없이 15%) [3]
마우스 항-hPD-1 IgG (BioLegend Cat#329912) (antibody)	866000 RLU	3.69 배	4.2 배	–	–	–
항-HEL hIgG4 (인간 IgG4, 카파 항-계란 라이소자임 항체, Crown Bioscience) (antibody)	–	–	–	639000 RLU	60%	20%
